Laboratory results taken from the supplement of paper PMC11246515.
± gives the standard deviation of the averaged measurements.

Experiment: total protein half-life in vivo (active degradation + dilution); higher = more stable protein
[1] = E. coli NCM3722 delta-clpP delta-lon delta-hslV, growth: N-lim chemostat, doubling time 6 h
[2] = E. coli NCM3722 delta-clpP, growth: N-lim chemostat, doubling time 6 h
[3] = E. coli NCM3722 delta-hslV, growth: N-lim chemostat, doubling time 6 h
[4] = E. coli NCM3722 delta-lon, growth: N-lim chemostat, doubling time 6 h
[5] = E. coli NCM3722 delta-smpB, growth: N-lim chemostat, doubling time 6 h
[6] = wild type E. coli NCM3722, growth: C-lim chemostat, doubling time 3 h
[7] = wild type E. coli NCM3722, growth: C-lim chemostat, doubling time 6 h
[8] = wild type E. coli NCM3722, growth: C-lim chemostat, doubling time 12 h
[9] = wild type E. coli NCM3722, growth: N-lim chemostat, doubling time 6 h
[10] = wild type E. coli NCM3722, growth: N-lim chemostat, doubling time 12 h
[11] = wild type E. coli NCM3722, growth: P-lim chemostat, doubling time 6 h
[12] = wild type E. coli NCM3722, growth: P-lim chemostat, doubling time 12 h

| Sequence | total protein half-life in vivo [1] [h] | total protein half-life in vivo [2] [h] | total protein half-life in vivo [3] [h] | total protein half-life in vivo [4] [h] | total protein half-life in vivo [5] [h] | total protein half-life in vivo [6] [h] | total protein half-life in vivo [7] [h] | total protein half-life in vivo [8] [h] | total protein half-life in vivo [9] [h] | total protein half-life in vivo [10] [h] | total protein half-life in vivo [11] [h] | total protein half-life in vivo [12] [h] |
| --- | --- | --- | --- | --- | --- | --- | --- | --- | --- | --- | --- | --- |
| MIPFNAPPVVGTELDYMQSAMGSGKLCGDGGFTRRCQQWLEQRFGSAKVLLTPSCTASLEMAALLLDIQPGDEVIMPSYTFVSTANAFVLRGAKIVFVDVRPDTMNIDETLIEAAITDKTRVIVPVHYAGVACEMDTIMALAKKHNLFVVEDAAQGVMSTYKGRALGTIGHIGCFSFHETKNYTAGGEGGATLINDKALIERAEIIREKGTNRSQFFRGQVDKYTWRDIGSSYLMSDLQAAYLWAQLEAADRINQQRLALWQNYYDALAPLAKAGRIELPSIPDGCVQNAHMFYIKLRDIDDRSALINFLKEAEIMAVFHYIPLHGCPAGEHFGEFHGEDRYTTKESERLLRLPLFYNLSPVNQRTVIATLLNYFS | 4.72 ± 0.099 | 4.4 ± 0.0057 | 4.83 ± 0.25 | 4.45 | 4.25 ± 0.17 | 2.89 ± 0.68 | 6.6 ± 1 | 12.5 ± 1.2 | 5.2 | 8.13 ± 0.2 | 6.1125 ± 0.0047 | 12.33 ± 0.05 |
| MKTIHDIRRSNARKLRDGVGGNSSFATMIDREPTQTSRFMGDGATKNIGDSMARHIEKCFDLPVGWLDQEHQTTNITKKPDVSITNKQITLVPVISWVQAGAWKEVGYSEVDLSTAETYPCPVPCGEMTYILRVIGDSMIDEYRPGDMIFVDPEVPACHGDDVIALMHDTGETTFKRLIEDGTQRYLKALNPNWPEPYIKINGNCSIIGTVIFSGKPRRYKIKA | 5.24 ± 0.42 | 5.02 ± 0.3 | 4.84 ± 0.77 | 4.886 ± 0.017 | 5.12 ± 0.24 | – | 6.8 ± 0.23 | 9.86 ± 0.61 | 5.26 ± 0.76 | 7.94 ± 0.96 | 4.81 ± 0.62 | 12.7 ± 2 |
| MANNTTGFTRIIKAAGYSWKGLRAAWINEAAFRQEGVAVLLAVVIACWLDVDAITRVLLISSVMLVMIVEILNSAIEAVVDRIGSEYHELSGRAKDMGSAAVLIAIIVAVITWCILLWSHFG [P0ABN1] | 6.58 ± 0.097 | 6.7 ± 1.4 | 5.79 ± 0.99 | 6.03 ± 0.49 | 6.13 ± 0.91 | 3.24 ± 0.045 | 6.21 ± 0.12 | 13.3 ± 2.6 | 5.93 ± 0.34 | 13.7 ± 3.1 | 5.54 ± 0.21 | 11.3 ± 0.31 |
| MTQQITLIKDKILSDNYFTLHNITYDLTRKDGEVIRHKREVYDRGNGATILLYNTKKKTVVLIRQFRVATWVNGNESGQLIESCAGLLDNDEPEVCIRKEAIEETGYEVGEVRKLFELYMSPGGVTELIHFFIAEYSDNQRANAGGGVEDEDIEVLELPFSQALEMIKTGEIRDGKTVLLLNYLQTSHLMD | 4.25 | 3.023 ± 0.017 | 2.96 ± 0.066 | 4.03 ± 0.41 | 3.07 ± 1 | 2.824 ± 0.026 | 4.44 | 6.27 ± 2.4 | 3.15 ± 0.25 | 4.71 | 2.31 | 4.47 ± 0.2 |
| MERFDAIIIGAGAAGMFCSALAGQAGRRVLLIDNGKKPGRKILMSGGGRCNFTNLYVEPGAYLSQNPHFCKSALARFTQWDFIDLVNKHGIAWHEKTLGQLFCDDSAQQIVDMLVDECEKGNVTFRLRSEVLSVAKDETGFTLDLNGMTVGCEKLVIATGGLSMPGLGASPFGYKIAEQFGLNVLPTRAGLVPFTLHKPLLEELQVLAGVAVPSVITAENGTVFRENLLFTHRGLSGPAVLQISSYWQPGEFVSINLLPDVDLETFLNEQRNAHPNQSLKNTLAVHLPKRLVERLQQLGQIPDVSLKQLNVRDQQALISTLTDWRVQPNGTEGYRTAEVTLGGVDTNELSSRTMEARKVPGLYFIGEVMDVTGWLGGYNFQWAWSSAWACAQDLIAAKSS | 5.02 ± 0.28 | 5.67 ± 1.1 | – | 5.81 ± 0.69 | 4.72 ± 0.1 | 3.282 ± 0.019 | 6.42 ± 0.6 | 12.3 ± 1.9 | 5.15 ± 0.21 | 9.59 ± 0.85 | 5.88 ± 0.17 | 10.8 ± 1.7 |
| MAGNVQEKQLRWYNIALMSFITVWGFGNVVNNYANQGLVVVFSWVFIFALYFTPYALIVGQLGSTFKDGKGGVSTWIKHTMGPGLAYLAAWTYWVVHIPYLAQKPQAILIALGWAMKGDGSLIKEYSVVALQGLTLVLFIFFMWVASRGMKSLKIVGSVAGIAMFVMSLLYVAMAVTAPAITEVHIATTNITWETFIPHIDFTYITTISMLVFAVGGAEKISPYVNQTRNPGKEFPKGMLCLAVMVAVCAILGSLAMGMMFDSRNIPDDLMTNGQYYAFQKLGEYYNMGNTLMVIYAIANTLGQVAALVFSIDAPLKVLLGDADSKYIPASLCRTNASGTPVNGYFLTLVLVAILIMLPTLGIGDMNNLYKWLLNLNSVVMPLRYLWVFVAFIAVVRLAQKYKPEYVFIRNKPLAMTVGIWCFAFTAFACLTGIFPKMEAFTAEWTFQLALNVATPFVLVGLGLIFPLLARKANSK | – | – | – | – | – | – | 6.93 | – | – | – | – | – |
| MSSRKELANAIRALSMDAVQKAKSGHPGAPMGMADIAEVLWRDFLKHNPQNPSWADRDRFVLSNGHGSMLIYSLLHLTGYDLPMEELKNFRQLHSKTPGHPEVGYTAGVETTTGPLGQGIANAVGMAIAEKTLAAQFNRPGHDIVDHYTYAFMGDGCMMEGISHEVCSLAGTLKLGKLIAFYDDNGISIDGHVEGWFTDDTAMRFEAYGWHVIRDIDGHDAASIKRAVEEARAVTDKPSLLMCKTIIGFGSPNKAGTHDSHGAPLGDAEIALTREQLGWKYAPFEIPSEIYAQWDAKEAGQAKESAWNEKFAAYAKAYPQEAAEFTRRMKGEMPSDFDAKAKEFIAKLQANPAKIASRKASQNAIEAFGPLLPEFLGGSADLAPSNLTLWSGSKAINEDAAGNYIHYGVREFGMTAIANGISLHGGFLPYTSTFLMFVEYARNAVRMAALMKQRQVMVYTHDSIGLGEDGPTHQPVEQVASLRVTPNMSTWRPCDQVESAVAWKYGVERQDGPTALILSRQNLAQQERTEEQLANIARGGYVLKDCAGQPELIFIATGSEVELAVAAYEKLTAEGVKARVVSMPSTDAFDKQDAAYRESVLPKAVTARVAVEAGIADYWYKYVGLNGAIVGMTTFGESAPAELLFEEFGFTVDNVVAKAKELL | 3.63 ± 0.31 | 3.35 ± 0.19 | 3.03 ± 0.057 | 3.47 ± 0.1 | 3.033 ± 0.021 | 3.22 ± 0.077 | 5.19 ± 0.23 | 9.96 ± 0.12 | 3.15 ± 0.11 | 4.48 ± 0.056 | 5.65 ± 0.089 | 10.7 ± 0.21 |
| MQDSILTTVVKDIDGEVTTLEKFAGNVLLIVNVASKCGLTPQYEQLENIQKAWVDRGFMVLGFPCNQFLEQEPGSDEEIKTYCTTTWGVTFPMFSKIEVNGEGRHPLYQKLIAAAPTAVAPEESGFYARMVSKGRAPLYPDDILWNFEKFLVGRDGKVIQRFSPDMTPEDPIVMESIKLALAK | 5.18 ± 1.1 | 4.68 ± 0.55 | 4.23 ± 0.055 | 4.73 ± 0.43 | 4.24 ± 0.047 | 2.82 ± 0.28 | 4.93 ± 0.1 | 7.87 ± 4.7 | 3.99 ± 0.07 | 6.05 ± 0.29 | 4.87 ± 0.1 | 11.1 ± 0.68 |
| MDLIYFLIDFILHIDVHLAELVAEYGVWVYAILFLILFCETGLVVTPFLPGDSLLFVAGALASLETNDLNVHMMVVLMLIAAIVGDAVNYTIGRLFGEKLFSNPNSKIFRRSYLDKTHQFYEKHGGKTIILARFVPIVRTFAPFVAGMGHMSYRHFAAYNVIGALLWVLLFTYAGYFFGTIPMVQDNLKLLIVGIIVVSILPGVIEIIRHKRAAARAAK [P0ABP6] | 3.68 ± 0.076 | 3.87 | 3.74 | 3.148 ± 0.016 | 4.71 ± 0.57 | 2.65 ± 0.21 | 5.03 ± 0.88 | 9.21 ± 3.2 | 3.7 ± 0.13 | 6.2 ± 0.26 | – | 7.57 ± 1.5 |
| MDAKQRIARRVAQELRDGDIVNLGIGLPTMVANYLPEGIHITLQSENGFLGLGPVTTAHPDLVNAGGQPCGVLPGAAMFDSAMSFALIRGGHIDACVLGGLQVDEEANLANWVVPGKMVPGMGGAMDLVTGSRKVIIAMEHCAKDGSAKILRRCTMPLTAQHAVHMLVTELAVFRFIDGKMWLTEIADGCDLATVRAKTEARFEVAADLNTQRGDL | – | – | – | 0.206 | – | – | – | – | 1.83 | – | – | – |
| MIKSALLVLEDGTQFHGRAIGATGSAVGEVVFNTSMTGYQEILTDPSYSRQIVTLTYPHIGNVGTNDADEESSQVHAQGLVIRDLPLIASNFRNTEDLSSYLKRHNIVAIADIDTRKLTRLLREKGAQNGCIIAGDNPDAALALEKARAFPGLNGMDLAKEVTTAEAYSWTQGSWTLTGGLPEAKKEDELPFHVVAYDFGAKRNILRMLVDRGCRLTIVPAQTSAEDVLKMNPDGIFLSNGPGDPAPCDYAITAIQKFLETDIPVFGICLGHQLLALASGAKTVKMKFGHHGGNHPVKDVEKNVVMITAQNHGFAVDEATLPANLRVTHKSLFDGTLQGIHRTDKPAFSFQGHPEASPGPHDAAPLFDHFIELIEQYRKTAK [P0A6F1] | 4.95 ± 1 | 4.51 ± 0.39 | 4.72 ± 0.13 | 5.36 ± 0.35 | 4.6318 ± 0.0031 | 3.18 ± 0.27 | – | 9.87 ± 0.035 | 4.466 ± 0.015 | 7.43 ± 0.44 | 5.95 ± 0.087 | 12.1 ± 0.28 |
| MSNLTGTDKSVILLMTIGEDRAAEVFKHLSQREVQTLSAAMANVTQISNKQLTDVLAEFEQEAEQFAALNINANDYLRSVLVKALGEERAASLLEDILETRDTASGIETLNFMEPQSAADLIRDEHPQIIATILVHLKRAQAADILALFDERLRHDVMLRIATFGGVQPAALAELTEVLNGLLDGQNLKRSKMGGVRTAAEIINLMKTQQEEAVITAVREFDGELAQKIIDEMFLFENLVDVDDRSIQRLLQEVDSESLLIALKGAEQPLREKFLRNMSQRAADILRDDLANRGPVRLSQVENEQKAILLIVRRLAETGEMVIGSGEDTYV [P0ABZ1] | 4.83 | 5.19 | – | – | – | 2.31 ± 0.33 | 3.78 ± 0.1 | 5.85 ± 0.23 | – | – | – | – |
| MSVSAFNRRWAAVILEALTRHGVRHICIAPGSRSTPLTLAAAENSAFIHHTHFDERGLGHLALGLAKVSKQPVAVIVTSGTAVANLYPALIEAGLTGEKLILLTADRPPELIDCGANQAIRQPGMFASHPTHSISLPRPTQDIPARWLVSTIDHALGTLHAGGVHINCPFAEPLYGEMDDTGLSWQQRLGDWWQDDKPWLREAPRLESEKQRDWFFWRQKRGVVVAGRMSAEEGKKVALWAQTLGWPLIGDVLSQTGQPLPCADLWLGNAKATSELQQAQIVVQLGSSLTGKRLLQWQASCEPEEYWIVDDIEGRLDPAHHRGRRLIANIADWLELHPAEKRQPWCVEIPRLAEQAMQAVIARRDAFGEAQLAHRICDYLPEQGQLFVGNSLVVRLIDALSQLPAGYPVYSNRGASGIDGLLSTAAGVQRASGKPTLAIVGDLSALYDLNALALLRQVSAPLVLIVVNNNGGQIFSLLPTPQSERERFYLMPQNVHFEHAAAMFELKYHRPQNWQELETAFADAWRTPTTTVIEMVVNDTDGAQTLQQLLAQVSHL | 6.1 ± 0.64 | 5.37 ± 0.1 | 5.38 ± 0.24 | – | 5.01 ± 0.12 | 3.27 ± 0.59 | 6.66 ± 0.06 | 12.2 ± 1.8 | 5.89 ± 0.76 | 12.3 ± 1.8 | 6.81 ± 0.65 | – |
| METVAYADFARLEMRVGKIVEVKRHENADKLYIVQVDVGQKTLQTVTSLVPYYSEEELMGKTVVVLCNLQKAKMRGETSECMLLCAETDDGSESVLLTPERMMPAGVRVV | 5.14 ± 0.11 | 5.33 | – | – | – | 2.97 ± 0.48 | 4.74 ± 0.58 | 8.53 ± 0.87 | – | – | – | – |
